In data set [1] the target is T1, Nuclease P1 (UniProt P24289 P24289:1-270). Briefly: cleavage_in_vitro; 183.54 to 467.93 mAU/min after digestion; 20 mM Na acetate pH 5.3, 4 mM Mg acetate, 37 C. Particulars: tags: Bethesda Research Laboratories.
The target in data set [2] is T1, Nuclease P1. Description: cleavage_in_vitro; almost 5-fold complementation increase; 20 mM Na acetate pH 5.3, 4 mM Mg acetate, 37 C, 16.5 min. The following applies: tags: Bethesda Research Laboratories. On the procedure: ED4-$T20$ was incubated at 37° C. for 16.5 minutes with various amounts of nuclease, P1 (Bethesda Research Laboratories), in 20 mM Na acetate pH 5.3, 4 mM Mg acetate. At the end of the incubation period, EA and the substrate, CPRG, were added in 150 mM Na phosphate, pH 7.2, 400 mM NaCl, 10 mM EGTA, 0.05% Tween 20 and 10 mM methionine. The rate of product formation was measured at 574 nm in mAU/min. The results (FIG. 1) indicate that the complementation activity of ED4-$T20$ can be increased by digestion of the conjugate with nuclease. An almost 5-fold increase in activity is seen between the use of no nuclease and highest concentration […] conditions.

Another data set deals with T2, BamHI (UniProt P23940 P23940:1-213).
T2 sequence: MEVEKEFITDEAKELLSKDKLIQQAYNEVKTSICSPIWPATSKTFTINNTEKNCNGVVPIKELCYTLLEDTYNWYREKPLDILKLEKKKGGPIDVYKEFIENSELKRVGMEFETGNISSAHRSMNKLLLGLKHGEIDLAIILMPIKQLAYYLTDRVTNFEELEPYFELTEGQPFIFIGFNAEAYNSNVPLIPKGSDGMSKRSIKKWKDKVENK
Briefly: cleavage_in_vitro; complementation rate 47.16 to 114.07 mAU/min after BamHI; 37 C, 40 min. Particulars: chain copies: 2; 24 bp duplex within circular ssDNA. The text has this: Complementation Activity of ED4-BP-1 Before and After Hybridization To Target Nucleic Acid In order to determine whether an ED-nucleic acid conjugate would be useful as a probe for the complementation activity detection of specific nucleic acid sequences, a conjugate was made of ED4 and BP-1. BP-1 is a single-stranded DNA oligonucleotide 24 bases long (SEQ ID NO:1, FIG. 2). The BP-1 sequence is complementary to the multiple cloning site region of the single-stranded DNA from the bacteriophage M13 mp18 (SEQ ID NO:2, FIG. 3). The viral DNA which is about 7250 bases in length was used as a model target nucleic acid. 2.4×10^-10 mol of ED4-BP-1 conjugate was incubated with and without 2.4×10^-9 mol of M13 mp18 DNA at 55° C. for 10 minutes. EA (20 U/test) and CPRG (2.0 mg/ml final) were then added and the mixture incubated at 37° C. for 4 minutes. The rate of increase in A$574$ was measured per minute between 4 and 6 minutes. The rates of complementation were 80.73 and 47.16 mAU/min without and with target M13 DNA mp18 DNA, respectively. Therefore complementation was reduced approximately 42% (FIG. 4) by hybridization with the target nucleic acid.
ED4-BP-1 was hybridized to M13 mp18 for 10 min at 55° C. […] The complementation efficiency of the ED4-BP-1/M13 mp18 complex before and after digestion with Bam HI was measured. The rate of increase in A574 was measured per minute as described above. […]

T1 sequence (P24289 whole entry, one chain of several): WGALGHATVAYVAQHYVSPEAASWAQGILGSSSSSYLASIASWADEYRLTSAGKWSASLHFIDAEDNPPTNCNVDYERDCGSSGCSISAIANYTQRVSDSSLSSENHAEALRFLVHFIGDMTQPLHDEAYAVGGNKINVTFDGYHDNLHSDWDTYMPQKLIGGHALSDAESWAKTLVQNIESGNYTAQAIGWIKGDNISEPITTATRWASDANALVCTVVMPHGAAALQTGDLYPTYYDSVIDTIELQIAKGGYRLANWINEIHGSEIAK

B1: ED4-BP-1 (ssDNA)
DNA: GAGGATCCCCGGGTACCGAGCTCG
modifications: 5' amine linker SMCC-conjugated to ED4 peptide
In turn, B1 came in with an activity in the data set with Nuclease P1 [1] of approximately 2.5 fold.

B2: ED4-T20 (ssDNA)
DNA: TTTTTTTTTTTTTTTTTTTT
modifications: 5' amine linker SMCC-conjugated to ED4 peptide
For B2, the activity with Nuclease P1 [2] was approximately 5 fold.

B3: ED4-BP-1/M13 mp18 hybrid (dsDNA)
DNA 1: GAGGATCCCCGGGTACCGAGCTCG
DNA 2: TGATTACGAATTCGAGCTCGGTACCCGGGGATCCTCTAGAGTCGA
modifications: 5' amine linker (3 or 6 carbons) SMCC-conjugated to ED4 peptide on BP-1
Take B3: in the data set with BamHI, the activity amounted to 2.4 fold.

The values are drawn from patent US5795718, “Detection of complementary nucleotide sequences” (Boehringer Mannheim Corporation).
